Experimental findings from paper PMC9635645 are described below.

In the assay the target is GAL4 DBD-BEAF-32B (Drosophila). The assay is described as follows: two-hybrid; GAL4 AD fusions (pOAD) against GAL4 DBD fusions (pOBD2) in yeast; 50 to 100 colonies with both plasmids scored for growth on medium lacking adenine and histidine, with X-α-Gal.
Chain of GAL4 DBD-BEAF-32B (Drosophila) (main, as listed by the source): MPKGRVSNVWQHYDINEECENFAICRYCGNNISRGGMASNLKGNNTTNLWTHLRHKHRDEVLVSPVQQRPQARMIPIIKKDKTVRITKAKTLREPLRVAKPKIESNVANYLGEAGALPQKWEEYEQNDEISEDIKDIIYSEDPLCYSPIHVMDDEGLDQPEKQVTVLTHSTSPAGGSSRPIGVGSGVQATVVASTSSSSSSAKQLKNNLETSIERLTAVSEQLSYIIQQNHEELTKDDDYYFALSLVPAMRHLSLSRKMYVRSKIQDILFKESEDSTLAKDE

In the case of GAL4 AD-Pbro BD4–5 (domain or fragment), the % of Y2H colonies expressing the reporter genes was 20%.
